Reference: PMC8333356 (Nature Communications, 2021)

Molecular target: receptor binding domain (RBD) of SARS-CoV-2 spike (SARS-CoV-2 Wuhan-Hu-1, UniProt P0DTC2)
Experiment: ELISA
Settings: both partners purified

B1: Nb21 (VHH)
VHH: QVQLVESGGGLVQAGGSLRLSCAVSGLGAHRVGWFRRAPGKEREFVAAIGANGGNTNYLDSVKGRFTISRDNAKNTIYLQMNSLKPQDTAVYYCAARDIETAEYTYWGQGTQVTVSS
notes: Cloned in pET-21b(+); also called class I Nb; source: E. coli BL21 (DE3), purified (cobalt resin, Superdex 75)
B1: binds.

B2: Nb34 (VHH)
VHH: DVQLVESGGGLVQAGGSLRLSCAASGFTFSNYVMYWGRQAPGKGREWVSGIDSDGSDTAYASSVKGRFTISRDNAKNTLYLQMNNLKPEDTALYYCVKSKDPYGSPWTRSEFDDYWGQGTQVTVSS
notes: Cloned in pET-21b(+)
B2: binds.

B3: Nb17 (VHH)
VHH: HVQLVESGGGLVQAGGSLRLSCAASGSIFSSNAMSWYRQAPGKQRELVASITSGGNADYADSVKGRFTISRDKNTVYPEMSSLKPADTAVYYCHAVGQEASAYAPRAYWGQGTQVTVSS
notes: Cloned in pET-21b(+); also called class III Nb; source: E. coli BL21 (DE3), purified (cobalt resin, Superdex 75)
B3: binds.

B4: Nb95 (VHH)
VHH: QVQLVESGGGLVQAGGSLRLSCAASGRTFSSYSMGWFRQAQGKEREFVATINGNGRDTYYTNSVKGRFTISRDDATNTVYLQMNSLKPEDTAIYYCAADKDVYYGYTSFPNEYEYWGQGTQVTVSS
notes: Cloned in pET-21b(+)
B4: binds.
